Assay [1] has as its target GFP-Spd2 (Drosophila melanogaster). The experiment in a line: co-IP; anti-GFP immunoprecipitation with GFP-Trap-A beads from D. mel-2 cell lysates, 2 h at 4 °C; 10 mM Tris-HCl pH 7.5, 150 mM NaCl, 0.5 mM EDTA, NP40; immunoblot; band intensities quantified in ImageJ. (In general: A western blot detects proteins with antibodies after separation by electrophoresis.)
Assay [2] deals with GFP-Cdc27 (Drosophila melanogaster). The description is as above.

Consider Cdc27 (endogenous) (natural protein), for which the precipitation efficiency (percent of input co-precipitated) in assay [1] was determined as 4.55%.
“Fzr (endogenous) (from UniProt O18402 1-478) (natural protein)” registered a precipitation efficiency (percent of input co-precipitated) in assay [1] of 14.5%.
In the case of “Spd2 (endogenous) (from UniProt Q9VV79 1-1146) (natural protein)”, the co-IP efficiency in assay [2] amounted to 2.7e-07.

B1: Fzy (endogenous) (natural protein)
chain: MSQFNFVSDLQNALIMDGETRGPAPRWKKKLEASLNGSVNTTRSVLSVSYNTSFSGVQAPTKTPGKSSEGKTKKSNTTPSKTPGGGDRFIPNRAATNFELAHFLVNKDSGDKSDEENDKATSSNSNESNVQASAHKGDRQKLISEVAQVGDSKGGRILCYQNKAPAAPETHNNPLKVVYSIKTPISTKSGSRYIPTTSERILDAPDFINDYYLNLMDWSADNIVAVALGSCVYLWNAQTGNIEQLTEFEEGDYAGSLSWIQEGQILAIGNSTGAVELWDCSKVKRLRVMDGHSARVGSLAWNSFLVSSGSRDGTIVHHDVRAREHKLSTLSGHTQEVCGLKWSTDFKYLASGGNDNLVNVWSAASGGVGTATDPLHKFNDHQAAVRALAWCPWQPSTLASGGGTADRCIKFWNVNNGTLMKSVDSKSQVCSLLFSRHYKELISAHGFANNQLTIWKYPTMVKQADLTGHTSRVLQMAMSPDGSTVISAGADETLRLWNCFAPDPLASKKAVSTSKGKQSVFRQSIR
In the case of B1, the precipitation efficiency (percent of input co-precipitated) in assay [1] was 2.43%.

The values are drawn from paper PMC5007356.
